According to the nanobody polyreactivity screen of Harvey et al. (2022):

Assay: yeast display, Sf9 membrane polyspecificity reagent, FACS + sequencing; frameworks hold sequencing errors
How it was run: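 In a synthetic yeast display library (Saccharomyces cerevisiae BJ5465), nanobody expression was induced with galactose for 36–48 hours. FACS gates were set low and high (top ~1%) using anti-HA fluorescence for expression and streptavidin fluorescence for binding of the Sf9 membrane reagent. Each polyreactivity label is drawn from the gate of origin.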

| Sequence | polyreactivity (PSR sort gate) |
| --- | --- |
| QVQLVESGGGLVQAGGSLRLICAASGIIFAWYVMGWSRQAPGKERELVAAITQSGGSTFYADSVKGRFTISRDNAKNTVYLQLNSLKPEDTAVYYCNTDYFFNVPEMDSWGQGTQVTVYS | low polyreactivity |
| QVQLVESGGGLVQAGGSLRLICAASGIIFFRYAMGWYRQAPGKERELVASIRAIGGSTSYADSVKGRFTISRDNAKNTVYLQMNSLKPEDTAVFYCAARQNYRYGYWGQGTQVTVSS | high polyreactivity |
| QVQLVESGGGLVQAGGSLRLICAASGIIFLYYAMGWYRQAPGKEWELVAAISSGVSTYYADSVKGRFTISRDNAKNTVYLQLNSLKPEDTAVYYCNADYYQLNSGMYYWGQGTQVTVSS | low polyreactivity |
| QVQLVESGGGLVQAGGSLRLICAASGIIFYGYGMGWYRQARGKERELVAAITRSGGRTYYADSVKGRFTISRDNAKNTVYLQMNSLKPEDTAVYYCAAKRRTGGNGYWGQGTQVTVSS | high polyreactivity |
| QVQLVESGGGLVQAGGSLRLICAASGIIFYVNAMGWYRQAPGKERELVAAITRGGTTYYADSVKGRFTISRDNAKNTVYLQMNSLKPEDTAVYYCAARLRYTTGIYYYWGQGTQVTVSS | high polyreactivity |
| QVQLVESGGGLVQAGGSLRLICAASGIIFYVYAMGWYRQAPGKERELVAAISFRGTSTYADSVKGRFTISRDNAKNTVYLQLNSLKPEDTAVYYCAVTGFDVLWPSLGGVLDYWGQGTQVTVSS | low polyreactivity |
| QVQLVESGGGLVQAGGSLRLICAASGITFYRNARGWYRQAPGKERELVAAITSGTSTYYADSVKGRFTISRDNAKFTVYLQMISLKPEDTAVYYCAKRTPPGYYGFDYWGQGTQVNVSS | low polyreactivity |
| QVQLVESGGGLVQAGGSLRLICAASGLIFSYYAMGWYRQAPGKERELVAAISRGGSTNYADSVKGRFTISRDNAKNTVYLQMNSLKPEDTAVYYCAARFVVRRDYGYWGQGTQVTVSS | high polyreactivity |
| QVQLVESGGGLVQAGGSLRLICAASGLIFVYYAMGWYRQAPGKERELVAAIDWSSTRTYYADSVKGRFTISRDNATNTVYLQMNSLKPEDTAVYYCAAESRYLSWFDYWGQGTQVTVSS | high polyreactivity |
| QVQLVESGGGLVQAGGSLRLICAASGLTFKQYVMGWYRQAPGKERELVAAIHNGTSTYYADSVKGRFTISRDNAKNTVYLQMNSLKPEDTAVYYCAADGLGFNTYDYWGQGTQVTVSS | low polyreactivity |
| QVQLVESGGGLVQAGGSLRLICAASGLTFTYYAMGWYRQAPGKERELVATISSSGRTNYADSVKGRFTISRDNAKNTVYLQMNSLKPEDTAVYYCAATLYHYWYADFDYWGQGTQVTVSS | high polyreactivity |
| QVQLVESGGGLVQAGGSLRLICAASGLTYFSYAMGWYRQAPGKQREFVAAITRRGGRTYYADSVKGRFTISRDNAKYTVYLQMNSLKPEDTAVYYCNAVPVLISVYRMEYWGQGTQVTVSS | high polyreactivity |
| QVQLVESGGGLVQAGGSLRLICAASGNIFGAYAMGWNIQAPGKERELVAVIRFDDGSTYYADSVKGRFTISRDNAKNTVYLQMNSLKPEDTAVDFCAVRLYLEMDYWGQGTQVTVSA | high polyreactivity |
| QVQLVESGGGLVQAGGSLRLICAASGNTFRYYAMGWYRQAPGKERELDAAINSRGGTTSYADSVKGRFTISRDNAKNTVYLQMNSLKPEDTAVYYCAARSYYRGTFYPYYYWGQGTQVTVSS | high polyreactivity |
| QVQLVESGGGLVQAGGSLRLICAASGNTIIRYAIGWFRQAPGKERELVAAISYSGGRTYYADSVKGRFTISRDNAKNTVYLQMNSVKPEDTAVYYCNAASRYGGDYWGQGTQVTVSS | low polyreactivity |
| QVQLVESGGGLVQAGGSLRLICAASGRIFGANAMGWYIQAPGKERELVAAISRTGGSKYYADSVKGRFTISRDNAKNTVYLQMNSLKPEDTAVYYCNAVYRYAHPMEYWGQGTQVTVSS | high polyreactivity |

| Sequence | polyreactivity (PSR sort gate) |
| --- | --- |
| QVQLVESGGGLVQAGGSLRLICAASGRIFGGNAMGWYRQAPGKERELVAPISRSGGSTYYADSVKVRFTISLDNAKNTVYLQMNSLIPEDTAVYYCAAVRRPGTGKYTEYDYWGQGTQVTVSS | high polyreactivity |
| QVQLVESGGGLVQAGGSLRLICAASGRIFGLYAMGWYRQAPGKERELVAGITYSGGTTYYADSVKGRFPISRDNAKNTVYLQMNSLKPEDTAVYYCNKRWYYQYGQSHVRLYDYWGQGTQVTVSS | high polyreactivity |
| QVQLVESGGGLVQAGGSLRLICAASGRIFGYYVMGWSRQSPGKERQLVAAIRSSADSTYYADSVKGRFTISRDNAKNTVYLQMNSLKPEDTAVYYCAAQSPAYYTKSYWGQGTQVTVSS | low polyreactivity |
| QVQLVESGGGLVQAGGSLRLICAASGRIFHYYAMGWYRQAPGKERELVAAIRWSGGDTYYADSVKGRFTISRDNAKNTVYLQMNSLKPEDTAVYYCAAYDHVYEYDYWGQGTQVTVSS | low polyreactivity |
| QVQLVESGGGLVQAGGSLRLICAASGRIFITNTMGWYRQAPGKETELVAAISRTGGSTYYADSVKGRFTISRDNAKNTVYLQMNSLKPEDTAVYFCNAVVRGYAQGAGFDYWGQGTQVTVSS | high polyreactivity |
| QVQLVESGGGLVQAGGSLRLICAASGRIFKWYAMGWYRQAPGKERELVATITWSGGSTYYADSVKGRFTISRDNAKNTVYLQMNSLKPEDTAVYNCNADTWLALPGFDYWGQGTQVTVSS | high polyreactivity |
| QVQLVESGGGLVQAGGSLRLICAASGRIFSKNAMGWYRQAPGKEREFVAAISRIGGRTYYADSVKGRFTISRDNAKNTVYFQMNSLKPEDTAVYYCATVHYGYTTSYDYWGQGTQVTVSS | high polyreactivity |
| QVQLVESGGGLVQAGGSLRLICAASGRIFWSNTMGWYRQAPGKERELVAAISGRGGSTYYADSVKGRFTISRDNAKNTVYLQMNSLKPEDTAVYYCAAKPTRSRKIYEYWGQGTQVTVSS | low polyreactivity |
| QVQLVESGGGLVQAGGSLRLICAASGRIFYGYAMGWSRQAPGKERELVAAIRWSGGRTYYADSVKGRFTISRDNAKNTVYLQMNSLKPEATAVYYCAADYGYRSYVRFLSANYDYWGKGTQVTVSS | high polyreactivity |
| QVQLVESGGGLVQAGGSLRLICAASGRIFYSYSMGWSRPAPGKERELVATITTSGKTYYADSVNGRFTISRDNAKNTVYLQMNSLIPDDTAVYYCNAGWDLVYGYYPRRKIFDYWGQGTQVTVSS | high polyreactivity |
| QVQLVESGGGLVQAGGSLRLICAASGRILYYNVMVWYRQAPGKEREMVASITSVVSTNYADSVKGRFTISRDNAKNTVYLQMNSLKPEDTAVYYCAARYFSGSYSDQIWGMDYWGQGTQLTVSS | high polyreactivity |
| QVQLVESGGGLVQAGGSLRLICAASGRTFADYAMGWYRQAPGKERELVAAISWRGGSTYYADSVKGRFTISRDNAKITVYLQMNSLKPEDTAVYYSNKAYPAHYDYLGQGTQVTVSS | low polyreactivity |
| QVQLVESGGGLVQAGGSLRLICAASGRTFAPYAMGWYRQAPGKEMQLVAAISSGGGNTYYADSVKGRFTISRDNAKNTVYLQMNSLKPEDTAVYYCNAAQRRGGLGYWGQGTQVTVSS | high polyreactivity |
| QVQLVESGGGLVQAGGSLRLICAASGRTFGGNAMGWYRQAPGKERELVAAISSGGSTNYADSVNGRFTISRDNAKNTVYFLMNSLKPEDTAVYYCAADSKIGSFDSWGQGTQVTVSS | low polyreactivity |
| QVQLVESGGGLVQAGGSLRLICAASGRTFGRNAMGWYRQAPGKERELVAAISYGGGSTYYADSVKGRFTISRDNAKNTVYLQMNSLKPEDTPGSAAAARYAYGMWGQGTQVTVSS | low polyreactivity |
| QVQLVESGGGLVQAGGSLRLICAASGRTFGVYAMGWYRQAPGKERELVATIRTTGSTNYADSVKGRYTISRDNAKITVYLEMNSLKTEDTAVYYCAARQRQSKYYPYTTFTYDYWGQGTQVSVSS | high polyreactivity |
